Changes are numbered by the printed parent chain.
B1: plant-produced humanized 2B9 antibody G2K3 (antibody, V domains shown)
VH: QVQLVQSGSELKKPGASVKMSCKAAGYTFTNYWIGWVRQAPGQGLEWIGDIYPENDFSNYNEKFKDRATLTADTSTRTAYMELSSLRSEDTAVYYCVRANEGWYLDVWGQGTTVTVSS
VL: DIQMTQSPSSLSASVGDRVTITCRASENIYSYLAWYQQKPGKAPKLLVYFAKTLAEGVPSRFSGSGSGTEFTLTISSLQPDDFANYYCQHHYGTPYTFGQGTKLEIKR
B2: plant-produced humanized 2B9 antibody G5K3 (antibody, V domains shown)
VH: B1 VH with M20V, A68V, L70I, R77S
VL: B1 VL
B3: plant-produced humanized 2B9 antibody G5K4 (antibody, V domains shown)
VH: B1 VH with M20V, A68V, L70I, R77S
VL: B1 VL with N85T
B4: plant-produced humanized 2B9 antibody G2K4 (antibody, V domains shown)
VH: B1 VH
VL: B1 VL with N85T

These binders were tested against NA (neuraminidase) used in the NA activity inhibition experiments of Example 9 (assay: cell-based or functional assay).
With B1 the IC50, inhibition of NA activity was 0.5 µg/mL. Work on B2 yielded an IC50, inhibition of NA activity of 0.45 µg/mL. B3 showed an IC50, inhibition of NA activity of 0.21 µg/mL. B4 was tested, and the IC50, inhibition of NA activity was 1.16 µg/mL.

Reference: US8734803
